The values that follow come from patent US5639728A, “Antineoplastic peptide” (priority 1993, dated 1997).

The test system of data set [1] is Meth A mouse sarcoma cells. The data set can be described thus: Antitumor effect on Meth A mouse sarcoma transplanted into Balb/c mice. It is filed as in vivo. Particulars: for Inhibition rate (tumor growth restriction rate): day 21. On the procedure:
(§1) The following experiments were performed in order to calculate a therapeutic index (ratio of toxicity and effectiveness). 2×10^5 Meth A mouse sarcoma cells were transplanted into the dorsal subcutis of 6-week-old female Balb/c mice in single groups comprising from 5 to 10 animals. Seven days after the tumor transplant, the tested substance was dissolved in physiological saline (9.9×10^7 units/ml, 5×10^7 units/mg), and this solution was administered intravenously to the mice twice per week; a total five times. In a control group, physiological saline alone was administered intravenously.
When 21 days following the transplant had passed, surviving animals were sacrificed, and tumors were excised. The excised tumors were weighed, and a mean tumor weight was calculated in each group. The mean tumor weight in each administration group was compared with the mean tumor weight in the control group, and tumor growth restriction rates were determined.
(§2) Based on the tumor growth restriction rates obtained at various concentrations, concentrations restricting tumor growth by 50% (50% effective dose; ED50 mg/kg) were calculated. In each administration group, when toxicity deaths were observed, a 50% lethal quantity (50% lethal dose; LD50 mg/kg) was calculated. The therapeutic index was taken as the ratio of the 50% lethal quantity (LD50) to the 50% tumor growth restriction quantity (ED50)
(§3) Control Δ10LT^4) was the TNF disclosed in JJP, A, S60-185799.

Data set [2] in a line: Toxicity deaths (LD50) in Balb/c mice. It is filed as in vivo, mouse. To be noted: i.v. twice per week, five times; female Balb/c mice. On the procedure: as §1, §2, §3
The nature of data set [3]: Effect on systolic blood pressure in SD rats. Particulars: 1 mg/kg i.v., t-test *P < 0.05 for PΔ10LT, FΔ10LT, Δ10LT, LT, TNFα, -- for FPΔ10LT, MLT. Format: in vivo, rat. From the text:
Using 11-week-old Crj:CD(SD) rats 350 to 400 g in weight (Nihon Charles River), effects of each test substance on blood pressure were investigated as follows. The aforementioned rats were given ether anesthesia, hair in the right femoral region was cue with clippers, and the skin was cut open using a small scissors. Xylocaine jelly (local anesthetic) was then applied to the cut skin, and each blood vessel was carefully peeled using a tweezers. After the peeling, an SP10 cannulation tube equipped with a three-way cock (Natsume) was attached to arteries and veins, and 200 unit/ml heparin solution was injected therefrom.
After insertion, the skin was sutured using an automatic stitcher, and the rats were secured to a stationary platform (Natsume, Boormann cage). After securing, air in the three-way cock of the arterial cannula was completely removed, and a polygraph (Nihon Denki Sanei, Model 363 System) pressure transducer was connected. After connection, the polygraph was set up, blood pressure measurement was begun, and when blood pressure and heart rate had stabilized, each tested substance used in the foregoing antitumor effect testing was administered by intravenous injection, and 24 hour systolic blood pressure was measured after administration. […]

For data set [4] the following is noted: previously known; cited from earlier work.

For the molecule TNFα, the “Inhibition rate (tumor growth restriction rate)” value turned out to be 43.3% in data set [1] (0.23 mg/kg i.v. twice per week, five times) and 86.5% in data set [1] (0.94 mg/kg i.v. twice per week, five times). Also, the “ED50 (50% tumor growth restriction)” value in data set [1] (i.v. twice per week, five times, Meth A, female Balb/c mice) was determined as 0.31 mg/kg. In addition, the “Treatment coefficient (LD50/ED50)” value in data set [1] (therapeutic index, LD50/ED50) was determined as 3.5. The molecule also returned an LD50 in data set [2] of 1.08 mg/kg. Further, the “Decrease of blood pressure (% of the control value) 24 hours after administration” value in data set [3] is on record as -9.6%. In addition, the “hypotensive effect, in words” value in data set [4] was “hypotension is a side effect”.

B1: LT: native-form human lymphotoxin (LT) (protein, UniProt P01374 35-205, looked up)
Lymphotoxin-alpha: LPGVGLTPSAAQTARQHPKMHLAHSTLKPAAHLIGDPSKQNSLLWRANTDRAFLQDGFSLSNNSLLVPTSGIYFVYSQVVFSGKAYSPKATSSPLYLAHEVQLFSSQYPFHVPLLSSQKMVYPGLQEPWLHSMYHGAAFQLTQGDQLSTHTDGIPHLVLSPSTVFFGAFAL
Regarding B1, the “Decrease of blood pressure (% of the control value) 24 hours after administration” value in data set [3] was -10.1%. Also, the “hypotensive effect, in words” value in data set [4] is “also has a hypotensive effect”.
